In patent US20200147235A1 (AbbVie / Abbott, published 2020):

Assays:
[1] = molecular target: T1, Human CD98 ECD with C-terminal His-tag (human, UniProt P08195 105-529); assay: SPR Biacore, anti-Fc capture of mAb, CD98 ECD analyte
T1 construct: also called huCD98 ECD; recombinant human CD98 extracellular domain
T1 sequence: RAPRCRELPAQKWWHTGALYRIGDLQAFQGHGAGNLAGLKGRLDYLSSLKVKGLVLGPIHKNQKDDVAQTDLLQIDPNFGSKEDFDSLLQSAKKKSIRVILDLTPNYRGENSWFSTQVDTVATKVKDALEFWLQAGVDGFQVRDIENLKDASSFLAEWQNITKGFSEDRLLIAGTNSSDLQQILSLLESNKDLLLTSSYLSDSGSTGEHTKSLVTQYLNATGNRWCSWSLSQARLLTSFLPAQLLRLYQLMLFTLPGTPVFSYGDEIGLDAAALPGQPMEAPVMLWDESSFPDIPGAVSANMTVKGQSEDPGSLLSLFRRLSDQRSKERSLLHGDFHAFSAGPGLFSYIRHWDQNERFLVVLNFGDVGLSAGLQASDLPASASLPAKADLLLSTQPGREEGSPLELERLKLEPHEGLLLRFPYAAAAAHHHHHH
Procedure: (§1) The binding kinetics of these purified mouse and rat monoclonal anti-CD98 antibodies for purified recombinant CD98 protein (extracellular domain. ECD) were determined by surface plasmon resonance-based measurements made on Biacore T100/T200 instruments (GE Healthcare, Piscataway, N.J.) at 25° C. using an anti-Fc capture assay approach. Binding kinetic measurements were made in the assay buffer HBS-EP+: 10 mM Hepes, pH 7.4, 150 mM NaCl, 3 mM EDTA, 0.05% Tween 20). For example, approximately 8000 RU of anti-Fc (species specific) polyclonal antibody (Thermo Fisher Scientific Inc. Rockford, Ill.) diluted in 10 mM sodium acetate (pH 4.5) was directly immobilized across a CM5 research grade biosensor chip using a standard amine coupling kit according to manufacturer's instructions and procedures at 25 μg/ml. Unreacted moieties on the biosensor surface were blocked with ethanolamine. The test antibody to be captured as a ligand was diluted in running buffer to ˜0.5 μg/mL and injected over anti-Fc surface at a flow rate of 10 μL/min, CD98 binding and dissociation were observed under a continuous flow rate of 80 μL/min. Human and cynomolgus monkey CD98 ECDs, both with a C-terminal His-tag, are used for this study (Table 3). After each cycle the anti-Fc capture surface was regenerated using 10 mM Glycine-HCl, pH 1.5. During the assay, all measurements were referenced against the capture surface alone (i.e., with no captured test antibody) and buffer-only injections (no antigen) were used for double referencing. For kinetic analysis, rate equations derived from the 1:1 Langmuir binding model were fitted simultaneously, globally and with mass transfer term included to multiple referenced antigen binding curves using Biacore T100T200 Evaluation software.

[2] = molecular target: T2, Cynomolgus monkey CD98 ECD with C-terminal His-tag (cynomolgus monkey, UniProt P08195 105-529 (human entry)); assay: as above
T2 construct: also called cyCD98 ECD; recombinant cynomolgus monkey CD98 extracellular domain
T2 chain: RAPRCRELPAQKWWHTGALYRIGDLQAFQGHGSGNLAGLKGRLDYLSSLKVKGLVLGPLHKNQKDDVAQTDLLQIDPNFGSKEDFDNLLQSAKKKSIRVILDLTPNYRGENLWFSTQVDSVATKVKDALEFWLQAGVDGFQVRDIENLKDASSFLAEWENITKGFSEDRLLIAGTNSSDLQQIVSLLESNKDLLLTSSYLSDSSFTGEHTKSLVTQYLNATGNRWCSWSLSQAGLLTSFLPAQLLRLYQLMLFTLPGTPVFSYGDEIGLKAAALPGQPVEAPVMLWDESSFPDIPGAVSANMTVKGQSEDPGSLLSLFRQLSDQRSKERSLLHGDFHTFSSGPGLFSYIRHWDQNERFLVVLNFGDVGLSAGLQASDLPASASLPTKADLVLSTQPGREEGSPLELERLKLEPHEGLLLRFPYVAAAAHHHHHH
Procedure: as §1

[3] = molecular target: T1, Human CD98 ECD with C-terminal His-tag; assay: SPR Biacore, anti-Fc capture of mAb, CD98 ECD analyte; kd set to assay limit
Procedure: as §1, with “During the assay, all measurements were referenced against the capture surface alone (i.e., with no captured test antibody) and buffer-only injections (no antigen) were used for double referencing. For kinetic analysis, rate equations derived from the 1:1 Langmuir binding model were fitted simultaneously, globally and with mass transfer term included to multiple referenced antigen binding curves using Biacore T100T200 Evaluation software.” left out

[4] = molecular target: T2, Cynomolgus monkey CD98 ECD with …; assay: as above
Procedure: as §1, with “During the assay, all measurements were referenced against the capture surface alone (i.e., with no captured test antibody) and buffer-only injections (no antigen) were used for double referencing. For kinetic analysis, rate equations derived from the 1:1 Langmuir binding model were fitted simultaneously, globally and with mass transfer term included to multiple referenced antigen binding curves using Biacore T100T200 Evaluation software.” left out

B1: Anti-CD98 murine hybridoma antibody Ab1 (antibody, V domains shown)
VH: EVKLVESGGGLVQPGGSLRLSCATSGFTFTDYYMSWVRQPPGKALEWLGFIRNPANVYTTEYSASVKGRFTISRDNSQSILYLQMNTLRAEDSATYYCARASYGNSEGWFAYWGQGTLVTVSA
VL: DIVMSQSPSSLAVSVGEKVTMSCKSSQNLLYNNNQKNYLAWYQQKPGQSPKLLIYWASTRESGVPDRFTGSGSGTDFTLTISSVKAEDLAVYYCQQYYSYPRTFGGGTKLEIK
Kd [1]: ≤ 0.059 nM
kon [1]: 85000 M⁻¹ s⁻¹
Kd [2]: ≤ 0.12 nM
kon [2]: 43000 M⁻¹ s⁻¹
koff [3]: ≤ 5e-06 s⁻¹
koff [4]: ≤ 5e-06 s⁻¹
